Measured values from patent US11260115B1, “Peptides and combination of peptides for use in immunotherapy against CLL and other cancers” (immatics biotechnologies GmbH, priority 2015, dated 2022).

Molecular target: HLA-A*02:01 (Homo sapiens, UniProt P04439, D140Y/D185E/D98H/E176V/E277Q/G131W/G231S/I119V/I121R/I166T/I218V/L300P/L318F/N151K/N90K/P208A/P217A/Q86G/Q94H/R138H/R169H/T345S)
Assay: MHC binding assay (UV-ligand exchange, β2m ELISA, peptide exchange yield)
Conditions: binding to HLA-A*02:01
Source text: Candidate peptides for T cell based therapies according to the present invention were further tested for their MHC binding capacity (affinity). The individual peptide-MHC complexes were produced by UV-ligand exchange, where a UV-sensitive peptide is cleaved upon UV-irradiation, and exchanged with the peptide of interest as analyzed. Only peptide candidates that can effectively bind and stabilize the peptide-receptive MHC molecules prevent dissociation of the MHC complexes. To determine the yield of the exchange reaction, an ELISA was performed based on the detection of the light chain (β2m) of stabilized MHC complexes. The assay was performed as generally described in Rodenko et al. (Rodenko et al., 2006).
96 well MAXISorp plates (NUNC) were coated over night with 2 ug/ml streptavidin in PBS at room temperature, washed 4× and blocked for 1 h at 37° C. in 2% BSA containing blocking buffer. Refolded HLA-A*02:01/MLA-001 monomers served as standards, covering the range of 15-500 ng/ml. Peptide-MHC monomers of the UV-exchange reaction were diluted 100 fold in blocking buffer. Samples were incubated for 1 h at 37° C., washed four times, incubated with 2 ug/ml HRP conjugated anti-β2m for 1 h at 37° C., washed again and detected with TMB solution that is stopped with […]. Absorption was measured at 450 nm. Candidate peptides that show a high exchange yield (preferably higher than 50%, most preferred higher than 75%) are generally preferred for a generation and production of antibodies or fragments thereof, and/or T cell receptors or fragments thereof, as they show sufficient avidity to the MHC molecules and prevent dissociation of the MHC complexes.
Table 11: MHC class I binding scores. Binding of HLA-class I restricted peptides to HLA-A*02:01 was ranged by peptide exchange yield: ≥10%=+; ≥20%=++; ≥50=+++; ≥75%=++++

Substance | Peptide Exchange (MHC class I binding score, peptide exchange yield)
18 (LLGEFSIKM; listed as Homo sapiens) [compound 18] | “+++” (>50 = +++)
116 (LLIGATMQV; listed as Homo sapiens) [compound 116] | “+++” (>50 = +++)
83 (GQGEVLVYV; listed as Homo sapiens) [compound 83] | “+++” (>50 = +++)
43 (FLLGPEALSFA; listed as Homo sapiens) [compound 43] | “++++” (>75% = ++++)
91 (ILDLNTYNV; listed as Homo sapiens) [compound 91] | “+++” (>50 = +++)
183 (VLMPTVYQQGV; listed as Homo sapiens) [compound 183] | “+++” (>50 = +++)
70 (FVPDTPVGV; listed as Homo sapiens) [compound 70] | “+++” (>50 = +++)
100 (ILNNEVFAI; listed as Homo sapiens) [compound 100] | “+++” (>50 = +++)
123 (LLLAEAELLTL; listed as Homo sapiens) [compound 123] | “++” (>20% = ++)
76 (GLLRIIPYL; listed as Homo sapiens) [compound 76] | “+++” (>50 = +++)
161 (SMDDGMINV; listed as Homo sapiens) [compound 161] | “+++” (>50 = +++)
244 (ILQALAVHL; listed as Homo sapiens) [compound 244] | “+++” (>50 = +++)
249 (LLPTGVFQV; listed as Homo sapiens) [compound 249] | “+++” (>50 = +++)
48 (FLSPQQPPLL; listed as Homo sapiens) [compound 48] | “+++” (>50 = +++)
167 (TLDTSKLYV; listed as Homo sapiens) [compound 167] | “+++” (>50 = +++)
88 (ILDEIGADVQA; listed as Homo sapiens) [compound 88] | “+++” (>50 = +++)
138 (NLLDIDAPVTV; listed as Homo sapiens) [compound 138] | “+++” (>50 = +++)
31 (ELMHGVAGV; listed as Homo sapiens) [compound 31] | “+++” (>50 = +++)
159 (SLQEEKLIYV; listed as Homo sapiens) [compound 159] | “+++” (>50 = +++)

Substance | Peptide Exchange (MHC class I binding score, peptide exchange yield)
121 (RLYEITIEV; listed as Homo sapiens) [compound 121] | “++++” (>75% = ++++)
50 (FLFEPVVKAFL; listed as Homo sapiens) [compound 50] | “+++” (>50 = +++)
11 (ALFTFSPLTV; listed as Homo sapiens) [compound 11] | “+++” (>50 = +++)
49 (FLTDLFAQL; listed as Homo sapiens) [compound 49] | “++++” (>75% = ++++)
199 (YLVELSSLL; listed as Homo sapiens) [compound 199] | “++++” (>75% = ++++)
174 (VLAELPIIVV; listed as Homo sapiens) [compound 174] | “+++” (>50 = +++)
177 (VLDDRELLL; listed as Homo sapiens) [compound 177] | “+++” (>50 = +++)
189 (VMLEMTPEL; listed as Homo sapiens) [compound 189] | “+++” (>50 = +++)
87 (HQIEAVDGEEL; listed as Homo sapiens) [compound 87] | “++” (>20% = ++)
14 (ALLRLLPGL; listed as Homo sapiens) [compound 14] | “+++” (>50 = +++)
110 (LLFDHLEPMEL; listed as Homo sapiens) [compound 110] | “+++” (>50 = +++)
248 (KTVEPPISQV; listed as Homo sapiens) [compound 248] | “++” (>20% = ++)
40 (FLDEDDMSL; listed as Homo sapiens) [compound 40] | “++” (>20% = ++)
52 (FLVETGFLHV; listed as Homo sapiens) [compound 52] | “++++” (>75% = ++++)
169 (TLLLGLTEV; listed as Homo sapiens) [compound 169] | “+++” (>50 = +++)
170 (TLTFRVETV; listed as Homo sapiens) [compound 170] | “+++” (>50 = +++)
211 (LIDVKPLGV; listed as Homo sapiens) [compound 211] | “+++” (>50 = +++)
232 (FMHQIIDQV; listed as Homo sapiens) [compound 232] | “++++” (>75% = ++++)

Other lines, results leading:

Peptide Exchange (MHC class I binding score, peptide exchange yield) | Substance
“+++” (>50 = +++) | 321 (RLLEFELAQL; listed as Homo sapiens) [compound 321]
“++” (>20% = ++) | 271 (VIRNIVEAA; listed as Homo sapiens) [compound 271]
“+++” (>50 = +++) | 376 (VLYNQRVEEI; listed as Homo sapiens) [compound 376]
“+++” (>50 = +++) | 317 (NLLAHIWAL; listed as Homo sapiens) [compound 317]
“++” (>20% = ++) | 284 (LLSAAEPVPA; listed as Homo sapiens) [compound 284]
“+++” (>50 = +++) | 348 (ALAKPPVVSV; listed as Homo sapiens) [compound 348]
“+++” (>50 = +++) | 362 (ILTELGGFEV; listed as Homo sapiens) [compound 362]
“+++” (>50 = +++) | 369 (RLLDLENSLLGL; listed as Homo sapiens) [compound 369]
“++++” (>75% = ++++) | 326 (VLAFLVHEL; listed as Homo sapiens) [compound 326]
“+++” (>50 = +++) | 363 (ITTEVVNELYV; listed as Homo sapiens) [compound 363]
“+++” (>50 = +++) | 341 (LLAELPASVHA; listed as Homo sapiens) [compound 341]
“+++” (>50 = +++) | 339 (GLWGTVVNI; listed as Homo sapiens) [compound 339]
“+++” (>50 = +++) | 309 (ILYGTQFVL; listed as Homo sapiens) [compound 309]
“+++” (>50 = +++) | 297 (FLVEPQEDTRL; listed as Homo sapiens) [compound 297]
“+++” (>50 = +++) | 314 (LMKDCEAEV; listed as Homo sapiens) [compound 314]
“+++” (>50 = +++) | 334 (YLLEEKIASL; listed as Homo sapiens) [compound 334]
“++++” (>75% = ++++) | 384 (YMIGSEVGNYL; listed as Homo sapiens) [compound 384]
“+++” (>50 = +++) | 265 (TLLADDLEIKL; listed as Homo sapiens) [compound 265]
“+++” (>50 = +++) | 278 (YLDDLLPKL; listed as Homo sapiens) [compound 278]
“++” (>20% = ++) | 266 (TLLDQLDTQL; listed as Homo sapiens) [compound 266]
“+++” (>50 = +++) | 259 (RLLDEQFAVL; listed as Homo sapiens) [compound 259]
“+++” (>50 = +++) | 262 (SLWNAGTSV; listed as Homo sapiens) [compound 262]
“++++” (>75% = ++++) | 383 (YLLREWVNL; listed as Homo sapiens) [compound 383]
